The text below walks through data of patent CN107880130A (SHENZHEN GUOCHUANG NANO ANTIBODY TECH CO LTD, dated 2018).

One assay deals with 癌胚抗原 (CEA, CEACAM5) (UniProt P06731). Put plainly: SPR (Biacore T100), antibody captured by Protein A, antigen injected at 100μg/ml. For orientation: In SPR one partner is held on a chip, and binding of the other changes the refractive index at the surface.
The target in a further assay is T1, CEACAM6 (UniProt P40199 35-320, limits assumed).
T1 sequence (looked up): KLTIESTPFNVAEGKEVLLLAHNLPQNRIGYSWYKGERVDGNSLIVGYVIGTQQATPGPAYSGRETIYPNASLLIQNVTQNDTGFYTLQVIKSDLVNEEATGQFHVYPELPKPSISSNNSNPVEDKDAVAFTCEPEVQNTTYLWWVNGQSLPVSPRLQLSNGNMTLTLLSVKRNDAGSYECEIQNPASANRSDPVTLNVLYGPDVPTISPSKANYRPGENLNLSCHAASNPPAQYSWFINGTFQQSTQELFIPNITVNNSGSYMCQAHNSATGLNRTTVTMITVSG
Briefly: SPR (Biacore T100), antibody captured by Protein A, antigen injected.

The target of another assay is T2, CEACAM1 (UniProt P13688 35-428, limits assumed).
T2 sequence (looked up): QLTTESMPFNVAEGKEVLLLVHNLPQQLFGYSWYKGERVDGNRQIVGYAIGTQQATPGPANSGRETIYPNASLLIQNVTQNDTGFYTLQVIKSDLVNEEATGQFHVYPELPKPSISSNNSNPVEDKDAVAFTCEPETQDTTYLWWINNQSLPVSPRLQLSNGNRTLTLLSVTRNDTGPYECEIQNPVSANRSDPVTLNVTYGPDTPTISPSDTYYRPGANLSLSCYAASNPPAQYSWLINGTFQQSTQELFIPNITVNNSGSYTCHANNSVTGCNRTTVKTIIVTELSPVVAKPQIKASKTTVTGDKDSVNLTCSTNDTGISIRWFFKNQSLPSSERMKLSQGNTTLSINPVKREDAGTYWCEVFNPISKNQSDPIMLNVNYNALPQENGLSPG
Described as above.

The target in a further assay is T3, CEACAM3 (UniProt P40198 35-155, limits assumed).
T3 sequence (looked up): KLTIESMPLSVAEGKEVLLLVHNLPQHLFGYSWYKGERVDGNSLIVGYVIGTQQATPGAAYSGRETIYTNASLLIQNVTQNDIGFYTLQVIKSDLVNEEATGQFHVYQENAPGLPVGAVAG
The description is as above.

The next assay has as its target T4, HE4 (UniProt Q14508 31-124).
T4 sequence (looked up): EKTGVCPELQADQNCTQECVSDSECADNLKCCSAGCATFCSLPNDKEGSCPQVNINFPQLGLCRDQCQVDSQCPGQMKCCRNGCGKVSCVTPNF
Described as above.

The next assay has as its target T5, AFP (UniProt P02771 19-609).
T5 sequence (looked up): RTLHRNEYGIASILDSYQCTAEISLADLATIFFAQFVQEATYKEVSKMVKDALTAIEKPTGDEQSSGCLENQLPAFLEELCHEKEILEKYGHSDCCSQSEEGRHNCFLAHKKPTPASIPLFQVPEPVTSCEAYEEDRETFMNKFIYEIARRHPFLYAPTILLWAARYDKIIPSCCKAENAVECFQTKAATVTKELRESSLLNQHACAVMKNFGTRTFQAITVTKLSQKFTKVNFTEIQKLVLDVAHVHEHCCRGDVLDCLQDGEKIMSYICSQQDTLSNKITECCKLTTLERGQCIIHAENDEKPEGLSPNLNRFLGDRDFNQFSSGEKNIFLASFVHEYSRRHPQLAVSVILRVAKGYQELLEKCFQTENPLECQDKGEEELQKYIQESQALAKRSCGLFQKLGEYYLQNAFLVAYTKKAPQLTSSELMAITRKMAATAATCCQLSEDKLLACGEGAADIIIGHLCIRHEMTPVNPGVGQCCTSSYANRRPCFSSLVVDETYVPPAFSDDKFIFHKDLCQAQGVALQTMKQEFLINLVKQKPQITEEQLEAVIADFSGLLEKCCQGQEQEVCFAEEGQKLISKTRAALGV
The description is as above.

For the next assay, the target named is T6, CEACAM8 (UniProt P31997 35-320, limits assumed).
T6 sequence (looked up): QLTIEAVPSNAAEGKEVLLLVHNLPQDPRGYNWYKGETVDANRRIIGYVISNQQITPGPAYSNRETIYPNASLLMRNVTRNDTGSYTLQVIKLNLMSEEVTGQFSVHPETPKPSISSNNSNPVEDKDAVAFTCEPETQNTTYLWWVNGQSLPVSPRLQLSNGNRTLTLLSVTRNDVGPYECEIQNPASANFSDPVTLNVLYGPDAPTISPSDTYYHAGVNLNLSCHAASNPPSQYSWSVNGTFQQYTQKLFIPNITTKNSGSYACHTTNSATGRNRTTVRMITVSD
The assay is described as above.

B1: 2D5 连接至带有恒定区的载体 (2D5 nanobody with constant region) (Fc fusion)
chain: ESGGGLVQAGGSLRLSCVASGRTFSSHPMGWFRQAPGKEREFVAGISWSGGSTHYADSVKGRFTISRDTAKNTVYLQMNSLKPEDTAVYYCNAALSERTPIATMPSQYDYWGQGT
notes: not shown: constant region from the vector
B1 displayed a 结合 (SPR binding response) in the assay with 癌胚抗原 (CEA, CEACAM5) of 53.3. The binding result with CEACAM6, with CEACAM1, with CEACAM3, in the assay with HE4, with AFP and with CEACAM8 was “no binding (tested: 100μg/ml)” in each case.
